Experimental findings from patent US20190177415A1 (PIERRE FABRE MEDICAMENT, published 2019) are described below.

In test [1] the target is T1, C10orf54 (antigen of the KD values in Table 42) (human, UniProt Q9H7M9 33-311, limits assumed).
T1 sequence: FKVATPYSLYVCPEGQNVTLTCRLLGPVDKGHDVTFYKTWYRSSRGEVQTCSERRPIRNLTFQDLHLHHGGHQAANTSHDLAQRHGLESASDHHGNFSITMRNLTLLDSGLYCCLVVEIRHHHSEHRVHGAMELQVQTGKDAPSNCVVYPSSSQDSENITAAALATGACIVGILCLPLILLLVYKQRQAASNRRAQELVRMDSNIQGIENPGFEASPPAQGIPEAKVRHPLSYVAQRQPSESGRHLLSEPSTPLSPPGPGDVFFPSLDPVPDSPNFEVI
Nature of the test: method and antigen form not stated.

Test [2] has as its target T2, full length cynomolgus monkey C10orf54 (construct CC4) (cynomolgus monkey, UniProt Q9H7M9 33-311 (human entry)).
T2 construct: also called C10orf54 Construct 4
T2 chain: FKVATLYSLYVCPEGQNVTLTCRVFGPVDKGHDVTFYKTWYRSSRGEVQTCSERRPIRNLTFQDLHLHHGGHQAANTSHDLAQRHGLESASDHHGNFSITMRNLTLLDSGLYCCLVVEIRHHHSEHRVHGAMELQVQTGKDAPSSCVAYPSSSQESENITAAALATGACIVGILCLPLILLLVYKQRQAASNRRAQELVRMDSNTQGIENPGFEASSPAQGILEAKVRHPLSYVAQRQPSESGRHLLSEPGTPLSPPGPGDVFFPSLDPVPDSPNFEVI
The test can be described thus: flow cytometry, transfected 293t cells, 2 ug/ml; stain = MFI >=20-fold over isotype control. The procedure:
(§1) To investigate epitope diversity of the anti-human C10orf54 antibodies, 293t cells were transfected with 1 of 10 different C10orf54 expression constructs that co-express a fluorescent marker. Two days after transfection, cells were stripped from the tissue culture plate, stained with 2 μg/ml anti-human C10orf54 antibody , washed, stained with anti-mouse IgG-Fc Alexa Fluor 647 polyclonal antibody, washed, and stained with the viability dye 4′,6-Diamidino-2-Phenylindole, Dihydrochloride. Upon acquisition of 10,000 live events on a flow cytometer, live cells marked with the fluorescent marker were analyzed for the degree of staining by the anti-human C10orf54 antibody. When the median fluorescence intensity fold-change relative to an isotype control antibody was at least 20-fold, the antibody was considered to stain the C10orf54 expression construct in question.
Background: A flow cytometer gives signals particle by particle.

Test [3] concerns the target T3, chimeric C10orf54: human IgV with mouse STALK (construct CC5) (human/mouse chimera).
T3 construct: also called C10orf54 Construct 5; hsIGVmmSTALK
T3 chain: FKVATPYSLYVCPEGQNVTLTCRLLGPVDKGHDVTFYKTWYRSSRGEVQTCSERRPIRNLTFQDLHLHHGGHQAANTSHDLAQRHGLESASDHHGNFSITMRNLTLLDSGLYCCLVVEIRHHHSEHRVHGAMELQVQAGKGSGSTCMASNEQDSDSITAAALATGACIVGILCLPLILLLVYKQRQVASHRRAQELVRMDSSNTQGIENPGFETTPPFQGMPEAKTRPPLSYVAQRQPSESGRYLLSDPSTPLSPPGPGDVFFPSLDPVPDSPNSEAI
The test is described as above. The method, then:
as §1

Test [4] addresses T4, chimeric C10orf54: first half of IgV mouse and remainder (including loop) human (construct CC8) (human/mouse chimera, UniProt Q9H7M9 33-311).
T4 construct: also called C10orf54 Construct 8; mmabChsC10
T4 chain: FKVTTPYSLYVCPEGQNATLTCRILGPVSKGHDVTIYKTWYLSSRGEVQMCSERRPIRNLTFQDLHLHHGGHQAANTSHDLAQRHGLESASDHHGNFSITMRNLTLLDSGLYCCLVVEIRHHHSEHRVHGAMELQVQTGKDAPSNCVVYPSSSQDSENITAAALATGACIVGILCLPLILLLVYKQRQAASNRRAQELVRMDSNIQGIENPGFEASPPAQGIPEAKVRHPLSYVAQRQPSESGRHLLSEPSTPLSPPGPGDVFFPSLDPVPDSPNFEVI
The test is described as above. The procedure: as §1

For test [5], the target named is T5, chimeric C10orf54: mouse with human loop (construct CC10) (human/mouse chimera, UniProt Q9D659 33-308 (mouse entry)).
T5 construct: also called C10orf54 Construct 10; mmC10hsLOOP
T5 chain: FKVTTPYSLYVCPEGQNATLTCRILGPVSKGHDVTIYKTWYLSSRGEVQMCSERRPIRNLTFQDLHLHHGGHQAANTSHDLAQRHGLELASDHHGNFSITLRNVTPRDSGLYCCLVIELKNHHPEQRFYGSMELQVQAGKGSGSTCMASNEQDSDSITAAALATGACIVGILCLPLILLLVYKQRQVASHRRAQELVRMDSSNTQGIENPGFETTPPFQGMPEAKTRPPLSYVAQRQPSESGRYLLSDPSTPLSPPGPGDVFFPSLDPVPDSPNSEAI
The test is described as above. The method, then:
as §1

What is called Kd is the free concentration of one partner at which half of the binding sites on the other are occupied at equilibrium, for simple one-to-one binding.

B1: murine monoclonal antibody 5B (antibody, V domains shown)
VH: QVQLQQSGAELVRPGVSVKISCKGSGYTFTDYGMHWVKQSHAKSLEWIGIIDTYYGDATYNQKFKGKATMTVDKSSSTAYMELARLTSEDSAIYYCARRAGNAMDYWGQGTSVTVSS
VL: NIVMTQTPKFLLVSAGDRVTITCKASQSVSNDVAWYQQKPGQSPKLLIYYASNRYTGVPDRFTGSGYGTDFTFTISTVQAEDLAVYFCQQDYSSPRTFGGGTKLEIK
notes: Mouse hybridoma antibody
In test [1], B1 displayed a dissociation constant (Kd) of 0.974 nM. For the same molecule, the binding result in test [2], in test [3], in test [4] and in test [5] was “binds” in each case.

B2: murine monoclonal antibody 46A (antibody, V domains shown)
VH: QVQLQQAGGELVRPGVSVKISCKGSGYTFTDYGMHWVKQSHAKSLEWIGIINTYYGDATYNQKFKGKATMTVDKSSSTAYMELARLTSEDSAIYYCARRAGTAMDYWGQGTSVTVSS
VL: SIVMTQTPKFLLVSAGDRVTITCKASQSVSNDVAWYQQKPGQSPKLLIYYASNRYTGVPDRFTGSGYGTDFTFTISTVQAEDLAVYFCQQDYGSPRTFGGGTKLEIK
notes: Mouse hybridoma antibody
B2 gave a Kd in test [1] of 1.88 nM. The binding result in test [2] and in test [4] was “binds” in each case.

B3: murine monoclonal antibody 128A (antibody, V domains shown)
VH: QVQLQQSGAELVRPGVSVKISCKGSGYTFTDYGMHWVKQSHAKSLEWIGLIDTYYGDATYNHKFKGKATMTVDKSSRTAYMELARLTSEDSAIYYCARRAGNAMDYWGQGTSVTASS
VL: NIAMTQTPKFLLVSAGDRVTITCKASQSVSNDIAWYQQKPGQSPRLLIYYASNRYTGVPDRFTGSGYGTDFTFTISTVQAEDLAVYFCQQDYSSPRTFGGGTKLEIK
notes: Mouse hybridoma antibody
With B3, in test [1], the Kd was found to be 0.635 nM. Further, the binding result in test [2], in test [3], in test [4] and in test [5] was “binds” each time.

B4: murine monoclonal antibody 146C (antibody, V domains shown)
VH: QVQLQQSGAELVRPGVSVKISCKGSGYTFTDYGMHWVKQSHAKSLEWIGLIDTYYGDATYNHKFKGKATMTVDKSSRTAYMELARLTSEDSAIYYCARRAGNAMDYWGQGTSVTASS
VL: NIAMTQTPKFLLVSAGDRVTITCKASQSVSNDIAWYQQKPGQSPRLLIYYASNRYTGVPDRFTGSGYGTDFTFTISTVQAEDLAVYFCQQDYSSPRTFGGGTKLEIK
notes: Mouse hybridoma antibody
B4: the binding result in test [2], in test [3], in test [4] and in test [5] was “binds” throughout.

B5: murine monoclonal antibody 97A (antibody, V domains shown)
VH: QVQLQQSGAELVRPGVSVKISCKGSGYTFTDYGMHWVKQSHAKSLEWIGVIDTYYGDASNNQKFKGKATMTVDKSSSTAYMELARLTSEDSAIYYCARRAGNAMDYWGQGTSVTVSS
VL: SIVMTQTPKFLLVSAGDRVAITCKASQSVSNDVAWYQQKPGQSPKLLIYYASNRYTGVPDRFTGSGYGTDFTFTISTVQAEDLAVYFCQQDYGSPRTFGGGTKLEIK
notes: Mouse hybridoma antibody
B5 returned a Kd in test [1] of 1.99 nM.

B6: murine monoclonal antibody 39A (antibody, V domains shown)
VH: QVQLQQSGAELMKPGASVKISCKATGYTFSSNWIEWVKQRPGHGLEWIGEILPGSGSTSYNEKFKGKATFTADTSSNTAYMQLSSLTSEDSAVYYCARWLLYYYAMDYWGQGTSVTVSS
VL: DVLMTQTPLSLPVSLGDPASISCRSSQSIVHNNGNTYLEWYLQKPGQSPKLLIYKVSNRFSGVPDRFSGSGSGTDFTLKISRVEAEDLGVYYCFQGSHVPYTFGGGTKLEIK
notes: Mouse hybridoma antibody
Molecule B6 registered a Kd in test [1] of 5.79 nM. In addition, the binding result in test [2], in test [3] and in test [4] was “binds” in each case.

B7: murine monoclonal antibody 76E1 (antibody, V domains shown)
VH: EVQLLQSGPELEKPGASVKISCKASGYSFTGYNMNWVKQSNGKSLEWIGNIDPYYDYTSYNLKFKDKATLTVDKSSSTAYMQLKSLTSEDSAVYYCATSTMITPFDYWGQGTTLTVSS
VL: DVLMTQTPLSLPVSLGDQASISCRSSQSIVHSNGNTYLEWYLQKPGQSPKLLIYKVSNRFSGVPDRFSGSGSGTDFTLKINRVEAEDLGVYYCFQGSHVPWTFGGGTKLEIK
notes: Mouse hybridoma antibody
For the molecule B7, the Kd in test [1] stood at 10.1 nM. In addition, the binding result in test [2], in test [3] and in test [4] was “binds” each time.

B8: murine monoclonal antibody 124A (antibody, V domains shown)
VH: QVQLQQSGAELMKPGASVKISCKATGYTFSSNWIEWVKQRPGHGLEWMGEILPGSGSTSYNEKFKGKATFTADTSSNTAYMQLSSLTSEDSAVYYCARWLLYYYAMDFWGQGTSVTVSS
VL: DVLMTQTPLSLPVSLGDQASISCRSSQSIVHNNGNTYLEWYLQKPGQSPKLLIYKVSNRFSGVPDRFSGSGSGTDFTLKISRVEAEDLGVYYCFQGSHVPYTFGGGTKLEIK
notes: Mouse hybridoma antibody
Consider B8, for which the Kd in test [1] amounted to 3.61 nM. In addition, the binding result in test [2], in test [3] and in test [4] was “binds” in each case.

B9: murine monoclonal antibody 215A (antibody, V domains shown)
VH: EVQLQQSGPELVKPGASMKISCKASGFSFTGYTMNWVKQSHGKNLEWIGLISPYNGGTSYNQKFKGKATLTVDKSSSTAYMELLSLTSEDSAVYYCARRAYGYAMDYWGQGTSVTVSS
VL: QIVLTQSPAIMSASPGEKVTMTCSASSSVSYMFWYQQKPGSSPRLLIYDTSNLASGVPLRFSGSGSGTSYSLTISRMEAEDAATYYCQQWSSYPFTFGSGTKLEIK
notes: Mouse hybridoma antibody
Turning to B9, in test [1], the Kd worked out at 1.52 nM. For the same molecule, the binding result in test [2], in test [3] and in test [4] was “binds” throughout.

B10: murine monoclonal antibody 53A (antibody, V domains shown)
VH: EVQLQQSGPELVKPGASVKMSCKASGYTFTSYFMHWVKQKPGQGLEWIGYIYPYNDGTKYNEKFKGKATLTSDKSSSTAYMELSSLTSEDSAVYYCARFDYDTLRYWGQGTTLTVSS
VL: DVVLTQTPLSLPVNIGDQASISCKSTKSLLNSDGFTYLDWYLQKPGQSPQLLIYLVSNRFSGVPDRFSGSGSGTDFTLKISRVEAEDLGVYYCFQSNYFPWTFGGGTKLEIK
notes: Mouse hybridoma antibody
Take B10: the dissociation constant (Kd) in test [1] came to 0.321 nM. Also, the binding result in test [2], in test [3] and in test [4] was “binds” throughout.

B11: murine monoclonal antibody 259A (antibody, V domains shown)
VH: EVQLQQSGPELVKPGASVKMSCKASGYTFTSYFMHWVKQKPGQGLEWIGYIYPYNDGTKYNEKFKGKATLTSDKSSSTAYMDLSSLTSEDSAVYYCARFDYDTLRYWGQGTTLTVSS
VL: DVVLTQTPLSLPVNIGDQASISCKSTKSLLNSDGFTYLDWYLQKPGQSPQLLIYLISNRFSGVPDRFSGSGSGTDFTLKISRVEAEDLGVYYCFQSNYFPWTFGGGTKLEIK
notes: Mouse hybridoma antibody
In test [1], B11 came in with a Kd of 0.266 nM. The binding result in test [2], in test [3] and in test [4] was “binds” throughout.
